Data: patent US20240245796A1 (PROFOUNDBIO US, published 2024)

Key:
[1] = target: T1, human FOLR1 extracellular domain linked to His tag (human, UniProt P15328 25-233, limits assumed); experiment: BLI, Ag 250 nM over Ab on anti-hIgG Fc tip
T1 construct: extracellular domain; It may be the same product as m13; also called Hu-FRα; Hu-Ag; not shown: His tag

[2] = target: T2, cynomolgus monkey FOLR1 extracellular domain linked to His tag (cynomolgus monkey, UniProt A0A2K5U044 25-233); experiment: BLI, Ag 250 nM over Ab on anti-hIgG Fc tip
T2 construct: extracellular domain; Antigen in solution in BLI; It may be the same product as m14; also called Cyno-Ag; not shown: His tag

[3] = target: T3, human FOLR3 extracellular domain linked to His tag (human, UniProt P41439 23-245, limits assumed); experiment: BLI, global 1:1 fit (7.82 nM row); all responses below quantification
T3 construct: extracellular domain; Antigen in solution in BLI; also called Hu-FRg; not shown: His tag

[4] = target: T1, human FOLR1 extracellular domain linked …; experiment: BLI, global 1:1 fit (62.5 nM row)
[5] = target: T2, cynomolgus monkey FOLR1 extracellular …; experiment: BLI, global 1:1 fit (62.5 nM row)
[6] = target: T4, human FOLR2 extracellular domain linked to His tag (human, UniProt P14207 17-230, limits assumed); experiment: BLI, Ag 15.6 nM; * = below range of quantification
T4 construct: extracellular domain; Antigen in solution in BLI; also called Hu-FRb; not shown: His tag

[7] = target: T3, human FOLR3 extracellular domain linked …; experiment: BLI, Ag 15.6 nM; * = below range of quantification
[8] = target: T1, human FOLR1 extracellular domain linked …; experiment: BLI, global 1:1 fit (7.82 nM row)
[9] = target: T2, cynomolgus monkey FOLR1 extracellular …; experiment: BLI, global 1:1 fit (7.82 nM row)
[10] = target: T4, human FOLR2 extracellular domain linked …; experiment: BLI, Ag 31.3 nM; * = below range of quantification
[11] = target: T3, human FOLR3 extracellular domain linked …; experiment: BLI, Ag 31.3 nM; * = below range of quantification
[12] = target: T1, human FOLR1 extracellular domain linked …; experiment: BLI, global 1:1 fit (125 nM row)
[13] = target: T2, cynomolgus monkey FOLR1 extracellular …; experiment: BLI, global 1:1 fit (125 nM row)
[14] = target: T4, human FOLR2 extracellular domain linked …; experiment: BLI, Ag 7.82 nM; * = below range of quantification
[15] = target: T3, human FOLR3 extracellular domain linked …; experiment: BLI, Ag 7.82 nM; * = below range of quantification
[16] = target: T1, human FOLR1 extracellular domain linked …; experiment: BLI, global 1:1 fit (250 nM row)
[17] = target: T4, human FOLR2 extracellular domain linked …; experiment: BLI, global 1:1 fit (250 nM row)
[18] = target: T5, rat FOLR1 extracellular domain linked to His tag (rat); experiment: BLI, Ag 125 nM; * = below range of quantification
T5 construct: extracellular domain; Antigen in solution in BLI; also called Rat-Ag

[19] = target: T3, human FOLR3 extracellular domain linked …; experiment: BLI, global 1:1 fit (15.6 nM row); all responses below quantification
[20] = target: T1, human FOLR1 extracellular domain linked …; experiment: BLI, Ag 125 nM over Ab on anti-hIgG Fc tip
[21] = target: T4, human FOLR2 extracellular domain linked …; experiment: BLI, Ag 125 nM over Ab on anti-hIgG Fc tip
[22] = target: T6, mouse FOLR1 extracellular domain linked to His tag (mouse, UniProt P35846 25-232, limits assumed); experiment: BLI, global 1:1 fit (15.6 nM row); only the 500 nM response quantifiable
T6 construct: extracellular domain; Antigen in solution in BLI; also called Mouse-Ag; not shown: His tag

[23] = target: T5, rat FOLR1 extracellular domain linked …; experiment: BLI, global 1:1 fit (62.5 nM row); all responses below quantification

T2 sequence (A0A2K5U044 entry or part of it): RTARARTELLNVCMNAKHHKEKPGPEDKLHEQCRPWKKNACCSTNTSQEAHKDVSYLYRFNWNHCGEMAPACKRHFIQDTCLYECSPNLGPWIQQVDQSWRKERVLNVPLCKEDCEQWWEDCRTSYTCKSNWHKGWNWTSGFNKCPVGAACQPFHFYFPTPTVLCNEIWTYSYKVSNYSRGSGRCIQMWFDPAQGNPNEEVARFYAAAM
T6 sequence (P35846 25-232 limits assumed): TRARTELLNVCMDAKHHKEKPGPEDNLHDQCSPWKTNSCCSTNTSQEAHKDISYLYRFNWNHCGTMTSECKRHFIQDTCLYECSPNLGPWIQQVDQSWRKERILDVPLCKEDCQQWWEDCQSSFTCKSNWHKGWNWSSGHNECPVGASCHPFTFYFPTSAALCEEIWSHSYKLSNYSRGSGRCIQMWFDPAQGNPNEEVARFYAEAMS
T3 sequence (P41439 23-245 limits assumed): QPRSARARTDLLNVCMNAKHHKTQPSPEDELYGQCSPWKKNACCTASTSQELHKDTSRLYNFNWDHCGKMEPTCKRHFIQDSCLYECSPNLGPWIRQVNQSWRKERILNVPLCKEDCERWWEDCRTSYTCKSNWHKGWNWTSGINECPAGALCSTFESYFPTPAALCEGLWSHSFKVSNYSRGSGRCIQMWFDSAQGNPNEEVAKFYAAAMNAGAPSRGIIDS
T1 sequence (P15328 25-233 limits assumed): as the sequence (A0A2K5U044 entry or part of it) above, with T2I, R4W, K37R, P146A, Y171H counted along it
T4 sequence (P14207 17-230 limits assumed): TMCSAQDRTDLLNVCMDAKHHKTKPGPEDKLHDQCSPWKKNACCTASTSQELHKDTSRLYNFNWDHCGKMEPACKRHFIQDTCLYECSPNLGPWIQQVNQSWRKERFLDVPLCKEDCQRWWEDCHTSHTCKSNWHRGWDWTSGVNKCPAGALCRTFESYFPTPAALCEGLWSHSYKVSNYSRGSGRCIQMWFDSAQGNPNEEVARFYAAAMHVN

B1: F131 (antibody, V domains shown)
VH: EVQLLESGGGVVQPGRSLRLSCAASGFTFSSYGMHWVRQAPGKGLEWVAVISYDGSNKYYADSVKGRFTISRANSKNTLYLQMNSLRAEDTAVYYCARPRAYYGAYGSSFDYWGQGTQVTVSS
VL: EIVMTQSPSSVSASVGDRVAITCRASQGISSWLAWYQQKPGKAPKLLIYAASSLQSGVPSRFSGSGSGTDFTLTISSLQPEDFATYYCQQSYSTPLTFGGGTKVDIK
notes: also called clone F131; F131 mAb
Response [1]: 0.162
Response [2]: 0.209
koff [3]: 0.217 s⁻¹
kon [3]: 1660 M⁻¹ s⁻¹
Kd [4]: 1.53 nM
koff [4]: 0.000338 s⁻¹
kon [4]: 221000 M⁻¹ s⁻¹
Kd [5]: 8.15 nM
koff [5]: 0.00157 s⁻¹
kon [5]: 193000 M⁻¹ s⁻¹
Response [6]: 0.002
Response [7]: -0.00261
Kd [8]: 1.53 nM
koff [8]: 0.000338 s⁻¹
kon [8]: 221000 M⁻¹ s⁻¹
Kd [9]: 8.15 nM
koff [9]: 0.00157 s⁻¹
kon [9]: 193000 M⁻¹ s⁻¹
Response [10]: 0.0068
Response [11]: 0.0028
Kd [12]: 1.53 nM
koff [12]: 0.000338 s⁻¹
kon [12]: 221000 M⁻¹ s⁻¹
Kd [13]: 8.15 nM
koff [13]: 0.00157 s⁻¹
kon [13]: 193000 M⁻¹ s⁻¹
Response [14]: 0.0011
Response [15]: 0.00103
Kd [16]: 5.3 nM
koff [16]: 0.0012 s⁻¹
kon [16]: 226000 M⁻¹ s⁻¹
Kd [17]: 142 nM
koff [17]: 0.0784 s⁻¹
kon [17]: 552000 M⁻¹ s⁻¹
Response [18]: -0.00477
koff [19]: 0.217 s⁻¹
kon [19]: 1660 M⁻¹ s⁻¹
Response [20]: 0.144
Response [21]: 0.0188
Kd [22]: 2960 nM
koff [22]: 0.301 s⁻¹
kon [22]: 102000 M⁻¹ s⁻¹
koff [23]: 1.03 s⁻¹
kon [23]: 5490 M⁻¹ s⁻¹

B2: F131-LD038 (antibody, V domains shown)
VH: B1 VH
VL: B1 VL
modifications: drug-linker LD038 (PB038, maleimide-PEG unit-Val-Cit-PAB-exatecan) on cysteines freed by TCEP reduction; positions not given
notes: Antibody-drug conjugate of F131 (IgG1) with LD038; also called anti-huFOLR-1 conjugate F131-LD038; F131-038
Response [1]: 0.184
Response [2]: 0.18
koff [3]: 0.233 s⁻¹
Kd [4]: 4.8 nM
koff [4]: 0.00107 s⁻¹
kon [4]: 224000 M⁻¹ s⁻¹
Kd [5]: 8.82 nM
koff [5]: 0.0016 s⁻¹
kon [5]: 181000 M⁻¹ s⁻¹
Response [6]: 0.0041
Response [7]: 0.0084
Kd [8]: 4.8 nM
koff [8]: 0.00107 s⁻¹
kon [8]: 224000 M⁻¹ s⁻¹
Kd [9]: 8.82 nM
koff [9]: 0.0016 s⁻¹
kon [9]: 181000 M⁻¹ s⁻¹
Response [10]: 0.0076
Response [11]: 0.0079
Kd [12]: 4.8 nM
koff [12]: 0.00107 s⁻¹
kon [12]: 224000 M⁻¹ s⁻¹
Kd [13]: 8.82 nM
koff [13]: 0.0016 s⁻¹
kon [13]: 181000 M⁻¹ s⁻¹
Response [14]: 0.002
Response [15]: 0.0004
Kd [16]: 4.79 nM
koff [16]: 0.00121 s⁻¹
kon [16]: 252000 M⁻¹ s⁻¹
Kd [17]: 84.4 nM
koff [17]: 0.0813 s⁻¹
kon [17]: 963000 M⁻¹ s⁻¹
Response [18]: 0.0007
koff [19]: 0.233 s⁻¹
Response [20]: 0.176
Response [21]: 0.0161
Kd [22]: 2870 nM
koff [22]: 0.266 s⁻¹
kon [22]: 92600 M⁻¹ s⁻¹
koff [23]: 0.224 s⁻¹
kon [23]: 2.64e+06 M⁻¹ s⁻¹
